{
  "source": "the supplement of paper PMC12636428",
  "data": [
    {"system": "Saccharomyces cerevisiae", "assay": "transcriptional activation domain activity (GFP:mCherry ratio, weighted mean of sorted bins, harmonized to initial dataset scale) (arbitrary fluorescence ratio units); higher = stronger transcriptional activation", "details": "beta-estradiol 1 µM; induction time 4 h", "method": "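53-aa protein tiles (fungal proteins plus yeast TF control tiles) fused C-terminally to a DBD-estrogen-binding domain-mCherry synthetic TF, integrated in S. cerevisiae (URA3 locus) with a GFP reporter. Cells were induced with 1 uM beta-estradiol for 4 h at 30 C, FACS-sorted into 8 bins by GFP:mCherry ratio and barcodes sequenced. Activity is the read-weighted mean bin fluorescence (GFP:mCherry), averaged over barcodes (median 12); tiles under 50 reads were discarded. New active-learning values were harmonized by linear fit onto the scale of the initial (Hummel et al.) dataset. The assay saturates at low and high signal.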", "values": [
      {"sequence": "MQWAGLMFFRCSICLLAFSVILMFGLVWYFFALCVVNRLSTICFVFWMLLSFL", "transcriptional activation domain activity": 42700},
      {"sequence": "YLYLCLQLLYYCRYCVFAIYTCHLPFAYTCMLMLLATGPYFYGLFICLRYLCC", "transcriptional activation domain activity": 24900},
      {"sequence": "MILYTWFFLRSPFFIFGILWVHGLVDRFLFCHLLVVYFCHLVNFFIHLKYANE", "transcriptional activation domain activity": 55700},
      {"sequence": "KIHLVNISQVVVFFVYRFLYGLIPLFEIATCAYYPLLVSLWHLDYLLFYAVMF", "transcriptional activation domain activity": 48100},
      {"sequence": "DATPAAPANGNDGFHEVQHRGRGRGGFQGEGRGGGGYRGRGGRGGEGRGRGRG", "transcriptional activation domain activity": 25800},
      {"sequence": "MNLDTSPDFVHFFLGFTGGVSILDLYCLFMYTFFDMIQLQLNPFSDFFFPFSL", "transcriptional activation domain activity": 62100},
      {"sequence": "LISRLFAVKEVTKIQDINLEFDIACLWPLVPLSSWVMDYIVTVMQAWSLLFNR", "transcriptional activation domain activity": 59400},
      {"sequence": "MQGEETIASKTNKPRQRRAHTRSRTGCSECRNRRVRCDEQKPQCKNCINSQRI", "transcriptional activation domain activity": 24100},
      {"sequence": "NHWVFGAFSECFIPGVFLSLHPLTFFLDWTIGFVSDVYTFDAHDPSILELLIF", "transcriptional activation domain activity": 47000},
      {"sequence": "RLLNALLLPPYLEQIMYFGTLACFDAWLYTFTILPMRFISAVGVLVKWWLYLI", "transcriptional activation domain activity": 47500},
      {"sequence": "WPFDESIERNFSTTATAATGESKFDINDNCNRINSKSYSKTNSMNGNGMNNSN", "transcriptional activation domain activity": 28400},
      {"sequence": "RKKRERRERLKRGKKGGKKGDEDGAGDGEKGKGGKVKARVVIREDAEGLGGEG", "transcriptional activation domain activity": 30900},
      {"sequence": "KLLLVHGRWSYQRIADMHANFFYKNVIWTFGLFWYMPFNGFDATYLYHYTFIL", "transcriptional activation domain activity": 58100},
      {"sequence": "ALKILVLLIFLMDTLHTYGVISYQWGLFLFCHHNATSACLSVLPWEIFMAVVL", "transcriptional activation domain activity": 56300},
      {"sequence": "KDNATTAAVAAASSEKDDEKKAKEENKPDDKKTEEKKAEEKKSDDTAKDDASK", "transcriptional activation domain activity": 34300},
      {"sequence": "AAFFFALLWVVFRSSWPSPLFFFLFFFVGLVLLAFLAFGFPFARFLLPLGVFF", "transcriptional activation domain activity": 26000},
      {"sequence": "LFFLSFLFFPFLSFLSFLFLFSFLFFPSFLFFPSLFLFLFSSPFHPIPFLFSS", "transcriptional activation domain activity": 57800},
      {"sequence": "DEEGRRALPRRCVLVMGSEREGVPGPVLAECDGCVEVRQVGVTRSLNVQTAAA", "transcriptional activation domain activity": 28700},
      {"sequence": "EDGGEDGETGGKILTKAEKEKQKKEREKQRKKEQATPAKAAAEEKKVEAAPAA", "transcriptional activation domain activity": 32100},
      {"sequence": "VKKAAEDGEDEAEEKPAPKAKRGRKKAELDEDDEEEAQPAKKKAKKAAPKAAA", "transcriptional activation domain activity": 21400},
      {"sequence": "EKPAEAAPAEAIPAEPEAVEEEKPKSPAPTPAAAPAKGTTPSPEKENVAPAKA", "transcriptional activation domain activity": 24800},
      {"sequence": "MGLLVIMEVVFCVINLDALFFFLLSLLLLFLTFFSFFRIMMEFIVFLHVSFYF", "transcriptional activation domain activity": 61400},
      {"sequence": "LLIFYFLFSCICIHFQQHLGLPLYLFNQDWYYAWQALAKQYFGLLLITMTKWW", "transcriptional activation domain activity": 53400},
      {"sequence": "MVCFKRSGLSLVFFFFFFFFFLLLVFFLFFFSLLLPIIISLVVRADLLMVHPH", "transcriptional activation domain activity": 31200},
      {"sequence": "GHGTHCSGTVAGKKYGVAKKANVYAVKVLRSNGSGTMSDVVKGVEYAAEQHSE", "transcriptional activation domain activity": "< 6570"},
      {"sequence": "MCVHVCLMFCSLLLSLSPFFFFHDLFLFLYTFSFSLSCFTPSYFSMFSSIPSS", "transcriptional activation domain activity": 76200},
      {"sequence": "LLLHYKHEEFVGHEETDFVVMGFTKLLLCCISSLKSFKKPLNAGPLIERIFRK", "transcriptional activation domain activity": 84700},
      {"sequence": "TWPINYRIRYILPLLVIAGYTKETLRLIQCIHQTRSSFFTPHFFRRMLRVLLR", "transcriptional activation domain activity": 52500},
      {"sequence": "KPLSIILGLVNVFVLYNYLSTGVSLWMISLRFSSFSCRFLADVFSCLLVFLLC", "transcriptional activation domain activity": 60600},
      {"sequence": "GKKGPGGRKGPGGRKGPGGRGGRAGGPKGRGGKGGKGMRPGAGAPPPPPPIAA", "transcriptional activation domain activity": 52600},
      {"sequence": "TNSEEDALDAWDLCATKMSLALVQLVQMFEEKELLSSLNVLLRLVTRISTAIP", "transcriptional activation domain activity": 45700},
      {"sequence": "KAEAEAEAQPIAAAKTPRTRKAAAKPKAAAPSPTPAIPKTQAPTASAPAAPLP", "transcriptional activation domain activity": 18300},
      {"sequence": "NVQPTANAASANAAAAAAAAASNSYAIPENELLDEDTMNFISSLKNDLSNISN", "transcriptional activation domain activity": 59700},
      {"sequence": "SMLSYHLWMVMHAETSVESQDFHIYRKVAKRRGETFTNSYDLGKIRNLELFFN", "transcriptional activation domain activity": 61200},
      {"sequence": "ESDEPEQQRAKSQSRRRQSRGRGRKGGSESEAERSDVSASGGGRRNRQRQKKQ", "transcriptional activation domain activity": 9900},
      {"sequence": "GQPTDASDGNATEGEVPEKPKKAKRKRVKKDAGEISDGGQPKSKPKKKRKPAK", "transcriptional activation domain activity": 36100},
      {"sequence": "MAGAVPVLMLILLLLSHLCTAFKFYSESGFALVRKILLTALPTFEPHHYQMDG", "transcriptional activation domain activity": 71600},
      {"sequence": "VAAAAAETERAAEAERVAEAGRREEAEGTTDTGKTETGRREEADGTAGAAKAA", "transcriptional activation domain activity": 24800},
      {"sequence": "AKYVTTSMEVTPVTFGTYRTVFLPNGGLFFAILTTIRDFVTRHGLHSKIAMIF", "transcriptional activation domain activity": 54300},
      {"sequence": "PSEEAAAAAVEEEEDVTQPEKPKDPEPTPVQPKATPAPAPTPAKPAVPKSWAS", "transcriptional activation domain activity": 37300},
      {"sequence": "MWLFLLMFYIVLWLRKAGAFISSSFSSFSVLSFSYLFLCGYLPFSFLFLTFSL", "transcriptional activation domain activity": 54200},
      {"sequence": "MDYVWRRVRWIRVRKHMVFIATLLEPFTECMLVCLIGALSARHLFDIRLVVFY", "transcriptional activation domain activity": 49000},
      {"sequence": "MVQCAVAECTEEGKSQCGRCKQRFYCSADCQQKDWKVHKKNCKSPAATSAQLS", "transcriptional activation domain activity": 23100},
      {"sequence": "METPEQPSAGRRRPHRKSRTGCAECRRRRIKCDEVKPACTACVRHDHPCVYPS", "transcriptional activation domain activity": 22000},
      {"sequence": "AKKAKQEATTEGGEEGSTGKTAKAKETPPTEQKEGGEKKAKATKARGKAGKEA", "transcriptional activation domain activity": 27300},
      {"sequence": "KKRNAKRPKVESEGEDELADAKKEADDDEDESPKKVSKASSSPEAKVKQSSVS", "transcriptional activation domain activity": 26200},
      {"sequence": "GVENQVDFHHNEKHKLMLLKALGYRVLADINKVSVVMPAALVGTVVLTLRGRG", "transcriptional activation domain activity": 44500},
      {"sequence": "GVDGDGAADADADEDDEEGEEDEDDEGGGAGRKRKKARMEAAPKAKPKPAPAK", "transcriptional activation domain activity": 27700},
      {"sequence": "FCHIALFPSIGLKDTNYIPRAMDGVRFAHLESLHLQFNMYWLGPMYAWALHIL", "transcriptional activation domain activity": 52500},
      {"sequence": "FLGTAMYFLYGESVIYYFKHILLVDRILLPLATHHRFISFMLYIIGFVFFVFS", "transcriptional activation domain activity": 51000},
      {"sequence": "MATLLGGFWFLVLCSIMLSALLTPLILLTGSLILLSFGSFPSLPHWLLIIIVH", "transcriptional activation domain activity": 62400},
      {"sequence": "AIEQFLDNLISQDMMSSNASMNSESHLHIRSPKKQHRYTELNQRYPETHPHSN", "transcriptional activation domain activity": 8240},
      {"sequence": "FLCIFSPFSRMISCLVYRSLFCSSYITSINLIVSVSKVVRRFIIRIFPLLFTI", "transcriptional activation domain activity": 51400},
      {"sequence": "FLLSILFLLSFFYSFFSFSLFIFDRLCQFSHFVDLPSLHYLSLCVFLSILCLF", "transcriptional activation domain activity": 37100},
      {"sequence": "MGVLSFRFLFWSFFFLSVMFLFLFFVFLLGYWFWFWFWLLVWLLVGFCCLVFF", "transcriptional activation domain activity": 38500},
      {"sequence": "AAKDRRHLRSRSQATYLILLGIMLWGLLRWRKTNVFKLWHLLVRQGACWILIV", "transcriptional activation domain activity": 60400},
      {"sequence": "MYHISCWFIFFHLLMSHIFIFIFIFLLLLFYKCIIFLFLYTYFFYFLVFSRLL", "transcriptional activation domain activity": 25700},
      {"sequence": "GNIHFTLRMALSDPDMTTVRPVLDLLFGLTHFFFVVNTGLFDLIQSCFKIIEA", "transcriptional activation domain activity": 55100},
      {"sequence": "PRKFICLTNQLTARLGCELDKDHDLFKRTLYAVVQYVLVNHPHHILYNLIALS", "transcriptional activation domain activity": 46000},
      {"sequence": "MMFCLRSFIPLLLLPLPPSLSPLHLVLLLFLTYILNRPCIYCSFLLLILFVSS", "transcriptional activation domain activity": 60600},
      {"sequence": "RWCARCMLLTATLHMGYFFSAWAPYDYIGYQLKNNKIVWKGLAAWCTLVWIVF", "transcriptional activation domain activity": 93300}
    ]}
  ]
}
